Laboratory results from US7892567.

Target: T1, transcription factor RFX-5, P48382
T1 chain: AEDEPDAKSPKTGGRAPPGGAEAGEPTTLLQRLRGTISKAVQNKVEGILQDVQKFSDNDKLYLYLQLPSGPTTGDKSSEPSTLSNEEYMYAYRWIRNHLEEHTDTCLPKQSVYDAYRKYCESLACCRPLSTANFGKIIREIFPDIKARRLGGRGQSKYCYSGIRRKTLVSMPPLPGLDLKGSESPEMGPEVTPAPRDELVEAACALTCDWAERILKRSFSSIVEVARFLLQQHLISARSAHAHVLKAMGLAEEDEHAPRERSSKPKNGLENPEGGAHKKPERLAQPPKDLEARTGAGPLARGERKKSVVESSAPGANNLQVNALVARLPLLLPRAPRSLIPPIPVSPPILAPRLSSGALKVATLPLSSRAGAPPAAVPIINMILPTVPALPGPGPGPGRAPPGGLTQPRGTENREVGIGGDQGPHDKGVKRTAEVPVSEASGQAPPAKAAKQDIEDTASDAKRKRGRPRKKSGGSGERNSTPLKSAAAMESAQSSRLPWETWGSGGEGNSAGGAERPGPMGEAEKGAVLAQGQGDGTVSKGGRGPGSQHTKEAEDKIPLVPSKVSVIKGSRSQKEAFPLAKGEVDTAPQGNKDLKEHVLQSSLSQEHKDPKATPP

B1: recombinant chlamydial protease-like activity factor (CPAF) from the C. trachomatis L2 genome, fusion protein with a 6-His tag at the N-terminus (protein)
chain: MGFWRTSIMKMNRIWLLLLTFSSAIHSPVRGESLVCKNALQDLSFLEHLLQVKYAPKTWKEQYLGWDLVQSSVSAQQKLRTQENPSTSFCQQVLADFIGGLNDFHAGVTFFAIESAYLPYTVQKSSDGRFYFVDIMTFSSEIRVGDELLEVDGAPVQDVLATLYGSNHKGTAAEESAALRTLFSRMASLGHKVPSGRTTLKIRRPFGTTREVRVKWRYVPEGVGDLATIAPSIRAPQLQKSMRSFFPKKDDAFHRSSSLFYSPMVPHFWAELRNHYATSGLKSGYNIGSTDGFLPVIGPVIWESEGLFRAYISSVTDGDGKSHKVGFLRIPTYSWQDMEDFDPSGPPPWEEFAKIIQVFSSNTEALIIDQTNNPGGSVLYLYALLSMLTDRPLELPKHRMILTQDEVVDALDWLTLLENVDTNVESRLALGDNMEGYTVDLQVAEYLKSFGRQVLNCWSKGDIELSTPIPLFGFEKIHPHPRVQYSKPICVLINEQDFSCADFFPVVLKDNDRALIVGTRTAGAGGFVFNVQFPNRTGIKTCSLTGSLAVREHGAFIENIGVEPHIDLPFTANDIRYKGYSEYLDKVKKLVCQLINNDGTIILAEDGSF
- degradation of the transcription factor RFX-5: the biological activity of recombinant CPAF was confirmed by the ability to degrade the transcription factor, RFX-5
